Measured values as given in patent publication US20100136580A1 (Genentech, published 2010).

T1: GST-Dvl2PDZ fusion protein (human, UniProt O14641 248-364)
T1 construct: range 248-364; Made with the pGEX E. coli expression system; also called GST-PDZ fusion protein; not shown: glutathione S-transferase (GST) encoded by plasmid pGEX
T1 sequence (looked up): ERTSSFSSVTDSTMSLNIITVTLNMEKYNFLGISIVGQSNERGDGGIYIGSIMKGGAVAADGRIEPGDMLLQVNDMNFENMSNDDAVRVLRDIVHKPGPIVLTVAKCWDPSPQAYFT

B1: SEQ ID NO 99 (peptide)
peptide: SIIYYGWLDGGG
B2: SEQ ID NO 109 (peptide)
peptide: GFLTHYGWLDGGG
B3: SEQ ID NO 84 (peptide)
peptide: FTWRDYGWLDGGG
B4: SEQ ID NO 111 (peptide)
peptide: IKLVQYGWIDGGG
B5: SEQ ID NO 112 (peptide)
peptide: MVDYGWIDYWG
B6: SEQ ID NO 130 (peptide)
peptide: GLVLLWDDFP
B7: SEQ ID NO 83 (peptide)
peptide: WVEYGWIDSGG
B8: SEQ ID NO 82 (peptide)
peptide: VKYYGYIDGGG
B9: SEQ ID NO 131 (peptide)
peptide: LQLLWSDIPG
B10: SEQ ID NO 114 (peptide)
peptide: HITVDYGWIDGGG
B11: SEQ ID NO 101 (peptide)
peptide: SHWKYYGWIDGGG
B12: SEQ ID NO 94 (peptide)
peptide: VSLINYGWIDGGG
B13: SEQ ID NO 104 (peptide)
peptide: YTKYYGWIDTGG
B14: SEQ ID NO 121 (peptide)
peptide: SIVLWSDIPS
B15: SEQ ID NO 123 (peptide)
peptide: SIVLWTDIPS
B16: SEQ ID NO 118 (peptide)
peptide: NEQLLWTDIP
B17: SEQ ID NO 97 (peptide)
peptide: ITDYGWVDGPG
B18: SEQ ID NO 116 (peptide)
peptide: VNLVEYGWVDGGG
B19: SEQ ID NO 87 (peptide)
peptide: TWMDYGWLDQGG
B20: SEQ ID NO 106 (peptide)
peptide: LKFYGWIDGGG
B21: SEQ ID NO 81 (peptide)
peptide: QSHTCYGWIDGGG
B22: SEQ ID NO 110 (peptide)
peptide: AMFHEYGWIDGGG
B23: SEQ ID NO 129 (peptide)
peptide: EMITLWSDLP
B24: SEQ ID NO 132 (peptide)
peptide: EMDLLWTDIP
B25: SEQ ID NO 98 (peptide)
peptide: MWYVDYGWVDGGG
B26: SEQ ID NO 90 (peptide)
peptide: TDYGWIDYPP
B27: SEQ ID NO 125 (peptide)
peptide: TNLLWSDIPP
B28: SEQ ID NO 119 (peptide)
peptide: EVLWSDFPPM
B29: SEQ ID NO 122 (peptide)
peptide: EVLWADFPPM
B30: SEQ ID NO 100 (peptide)
peptide: AHTTFYGWIDGGG
B31: SEQ ID NO 113 (peptide)
peptide: VKYYGYIDGGG
B32: SEQ ID NO 91 (peptide)
peptide: TRFTNYGWLDGGG
B33: SEQ ID NO 95 (peptide)
peptide: WISGWIDYPP
B34: SEQ ID NO 133 (peptide)
peptide: WTNVLWTDIP
B35: SEQ ID NO 107 (peptide)
peptide: VSLINYGWIDGGG
B36: SEQ ID NO 124 (peptide)
peptide: SMVLWWDVPS
B37: SEQ ID NO 117 (peptide)
peptide: SWETLWSDFP
B38: SEQ ID NO 96 (peptide)
peptide: SHWKYYGWIDGGG
B39: SEQ ID NO 108 (peptide)
peptide: IKLVQYGWIDGGG
B40: SEQ ID NO 103 (peptide)
peptide: YTDYGWIDQSG
B41: SEQ ID NO 88 (peptide)
peptide: GGRMALGWLDGGG
B42: SEQ ID NO 127 (peptide)
peptide: SIVLWSDIPS
B43: SEQ ID NO 92 (peptide)
peptide: LKFYGWIDGGG
B44: SEQ ID NO 105 (peptide)
peptide: WWVDYGFVDGGG
B45: SEQ ID NO 120 (peptide)
peptide: QQLLWSDIP
B46: SEQ ID NO 85 (peptide)
peptide: TLLHFYGYIDGGG
B47: SEQ ID NO 86 (peptide)
peptide: YTKYYGWIDTGG
B48: SEQ ID NO 128 (peptide)
peptide: EVLWSDFPPM
B49: SEQ ID NO 102 (peptide)
peptide: AWIVDYGWIDGGG
B50: SEQ ID NO 89 (peptide)
peptide: AWIVDYGWIDGGG
B51: SEQ ID NO 93 (peptide)
peptide: SLQWYGWIDSGG
B52: SEQ ID NO 115 (peptide)
peptide: LTMYGWIDGKG

The binders below were run against T1, GST-Dvl2PDZ fusion protein (assay: phage display selection on GST-Dvl2PDZ).
Procedure: The libraries were cycled through rounds of binding selection with a GST-Dvl2PDZ fusion protein coated on 96-well Maxisorp immunoplates as the capture target. Phage were propagated in E. coli XL1-blue with M13-KO7 helper phage and 10 μM IPTG. After four rounds of binding selection, individual phage clones were analyzed in a high-throughput phage ELISA, and positive clones were subjected to DNA sequence analysis.
We used decapeptide libraries fused to the C-terminus or N-terminus of the phage coat protein. The library contained NNK degenerate codons that encoded all 20 natural amino acids. The possible occurrence of amber stop codons in the degenerate codon also provided for the display of shorter peptides for the C-terminal library. Each library was cycled through four rounds of binding selection with immobilized GST-Dvl2PDZ fusion protein as the capture target.

| binding result | Binder |
| --- | --- |
| binds | B1 |
| binds | B2 |
| binds | B3 |
| binds | B4 |
| binds | B5 |
| binds | B6 |
| binds | B7 |
| binds | B8 |
| binds | B9 |
| binds | B10 |
| binds | B11 |
| binds | B12 |
| binds | B13 |
| binds | B14 |
| binds | B15 |
| binds | B16 |
| binds | B17 |
| binds | B18 |
| binds | B19 |
| binds | B20 |
| binds | B21 |
| binds | B22 |
| binds | B23 |
| binds | B24 |
| binds | B25 |
| binds | B26 |

| binding result | Binder |
| --- | --- |
| binds | B27 |
| binds | B28 |
| binds | B29 |
| binds | B30 |
| binds | B31 |
| binds | B32 |
| binds | B33 |
| binds | B34 |
| binds | B35 |
| binds | B36 |
| binds | B37 |
| binds | B38 |
| binds | B39 |
| binds | B40 |
| binds | B41 |
| binds | B42 |
| binds | B43 |
| binds | B44 |
| binds | B45 |
| binds | B46 |
| binds | B47 |
| binds | B48 |
| binds | B49 |
| binds | B50 |
| binds | B51 |
| binds | B52 |
